The experiment has as its target full length human importin β (KPNB1), expressed from pET30a-WT Importin β (pKW485) (human, UniProt Q14974 1-876). Description: FRET; displacement of importin β-bound Rango sensor.

One may read the Kd as a measure of binding affinity in units of concentration. A high value points to weaker binding.

Sequence of full length human importin β (KPNB1), expressed from pET30a-WT Importin β (pKW485) (Q14974 whole entry): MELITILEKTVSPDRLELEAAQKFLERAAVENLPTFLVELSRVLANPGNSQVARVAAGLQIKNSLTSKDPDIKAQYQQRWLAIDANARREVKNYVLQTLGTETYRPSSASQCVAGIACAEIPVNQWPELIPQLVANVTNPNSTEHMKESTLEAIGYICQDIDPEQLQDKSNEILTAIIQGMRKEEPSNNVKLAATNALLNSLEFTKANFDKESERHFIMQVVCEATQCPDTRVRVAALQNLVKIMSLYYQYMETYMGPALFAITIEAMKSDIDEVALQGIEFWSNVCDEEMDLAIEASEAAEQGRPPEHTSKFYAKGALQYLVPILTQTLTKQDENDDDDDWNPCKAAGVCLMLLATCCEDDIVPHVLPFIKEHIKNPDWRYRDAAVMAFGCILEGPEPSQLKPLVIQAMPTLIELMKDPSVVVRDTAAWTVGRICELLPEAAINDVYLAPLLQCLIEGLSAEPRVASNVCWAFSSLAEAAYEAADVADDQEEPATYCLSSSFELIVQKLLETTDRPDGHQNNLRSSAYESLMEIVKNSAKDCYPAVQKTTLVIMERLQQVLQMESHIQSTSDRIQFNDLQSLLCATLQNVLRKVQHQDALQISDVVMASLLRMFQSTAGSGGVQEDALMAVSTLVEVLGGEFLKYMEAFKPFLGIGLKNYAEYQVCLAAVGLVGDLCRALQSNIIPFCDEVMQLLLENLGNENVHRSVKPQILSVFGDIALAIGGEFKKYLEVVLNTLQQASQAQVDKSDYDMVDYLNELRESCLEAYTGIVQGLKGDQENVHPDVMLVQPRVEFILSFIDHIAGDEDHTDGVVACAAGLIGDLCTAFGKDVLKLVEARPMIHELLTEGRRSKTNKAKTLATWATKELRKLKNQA

Consider GRGRGRGRGRGRGRGRGRGRKC, for which the equilibrium dissociation constant (Kd) amounted to 17.4 nM. This lies in the double-digit nanomolar range.

For PRPRPRPRPRPRPRPRPRPRKC, the Kd stood at 8.2 nM. Compared with the last molecule, the Kd is about 2.1-fold lower.

(Values after paper doi:10.1101/787473 (2019).)
